Reference: patent EP4089107A1 (Cytoki Pharma ApS, dated 2022)

T1: human IL-22 receptor (human IL-22Ra and human IL-10Rb) expressed on BHK reporter cells (human, UniProt Q8N6P7 16-574; Q08334 20-325)
T1 sequence (looked up) 1: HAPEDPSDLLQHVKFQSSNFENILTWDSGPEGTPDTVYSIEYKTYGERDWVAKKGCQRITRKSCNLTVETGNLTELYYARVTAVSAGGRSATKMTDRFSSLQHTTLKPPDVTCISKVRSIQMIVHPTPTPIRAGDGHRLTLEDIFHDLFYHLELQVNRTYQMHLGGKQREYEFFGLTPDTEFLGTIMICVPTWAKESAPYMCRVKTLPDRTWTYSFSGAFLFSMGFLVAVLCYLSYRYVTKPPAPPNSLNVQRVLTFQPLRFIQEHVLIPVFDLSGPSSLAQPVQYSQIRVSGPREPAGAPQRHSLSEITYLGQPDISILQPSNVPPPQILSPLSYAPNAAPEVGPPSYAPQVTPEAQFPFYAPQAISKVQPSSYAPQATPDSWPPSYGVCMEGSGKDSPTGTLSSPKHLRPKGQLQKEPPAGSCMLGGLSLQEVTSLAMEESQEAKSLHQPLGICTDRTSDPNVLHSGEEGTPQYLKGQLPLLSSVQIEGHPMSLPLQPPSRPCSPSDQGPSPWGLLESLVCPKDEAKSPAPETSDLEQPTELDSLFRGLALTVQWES
T1 sequence (looked up) 2: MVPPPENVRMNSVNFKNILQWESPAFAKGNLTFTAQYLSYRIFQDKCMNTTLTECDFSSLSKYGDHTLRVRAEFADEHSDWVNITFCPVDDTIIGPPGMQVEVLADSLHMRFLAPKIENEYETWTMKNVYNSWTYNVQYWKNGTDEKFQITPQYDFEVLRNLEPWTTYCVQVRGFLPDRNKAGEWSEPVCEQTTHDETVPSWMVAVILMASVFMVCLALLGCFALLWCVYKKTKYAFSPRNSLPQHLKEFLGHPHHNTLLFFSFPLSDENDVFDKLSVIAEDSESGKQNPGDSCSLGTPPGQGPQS


Key:
[1] = molecular target: T1, human IL-22 receptor (human IL-22Ra and …); test: cell-based or functional assay
[2] = molecular target: T1, human IL-22 receptor (human IL-22Ra and …); test: cell-based or functional assay; remark: listed apart in the source

| Binder | EC50 in BHK cell reporter gene assay (luciferase with STAT3-induced promoter) [1] [pM] | fold reduction in potency compared to hIL-22, BHK cell assay with albumin present [2] [fold] |
| --- | --- | --- |
| native mature human IL-22 (ligand) APISSHCRLDKSNFQQPYITNRTFMLAKEASLADNNTDVRLIGEKLFHGVSMSERCYLMKQVLNFTLEEVLFPQSDRFQPYMQEVVPFLARLSNRLSTCHIEGDDLHIQRNVQKLKDTVKKLGESGEIKAIGELDLLFMSLRNACI | 70 |  |
| Derivative 1 (ligand, C18 diacid covalently attached via linker γGlu-OEG-OEG-C2DA-Ac at residue 106C) APISSHCRLDKSNFQQPYITNRTFMLAKEASLADQNTDVRLIGEKLFHGVSMSERCYLMKQVLQFTLEEVLFPQSDRFQPYMQEVVPFLARLSNRLSTCHIEGDDCHIQRNVQKLKDTVKKLGESGEIKAIGELDLLFMSLRNACI | 230 | 3 |
| Derivative 2 (ligand, C18 diacid covalently attached via linker γGlu-OEG-OEG-C2DA-Ac at residue 95C) APISSHCRLDKSNFQQPYITNRTFMLAKEASLADQNTDVRLIGEKLFHGVSMSERCYLMKQVLQFTLEEVLFPQSDRFQPYMQEVVPFLARLSNCLSTCHIEGDDLHIQRNVQKLKDTVKKLGESGEIKAIGELDLLFMSLRNACI | 360 | 5 |
